The text below walks through data of US20120271036A1.

Like-named read-outs stand apart in the source and are kept apart here.

Assay [1] deals with Cul5(N), human Cullin5 residues 2-384 (V341R, L345D) after removal of GST (human) (UniProt Q93034). Description: ITC, 30 C. A general note: ITC needs no label: the signal is the heat of the interaction.
For assay [2] the target is unchanged.
For assay [3] the target is unchanged. Description: ITC; one set of sites model.
Assay [4] shares this target. The source holds these as a separate data set.
For assay [5] the target is unchanged. The assay can be described thus: ITC, one set of sites fit of one isotherm with the actual BCvifVF concentration.

Sequence of Cul5(N), human Cullin5 residues 2-384 (V341R, L345D) after removal of GST (human) (Q93034 other isoform, or with tags, fused parts or gaps V341R L345D V341R L345D): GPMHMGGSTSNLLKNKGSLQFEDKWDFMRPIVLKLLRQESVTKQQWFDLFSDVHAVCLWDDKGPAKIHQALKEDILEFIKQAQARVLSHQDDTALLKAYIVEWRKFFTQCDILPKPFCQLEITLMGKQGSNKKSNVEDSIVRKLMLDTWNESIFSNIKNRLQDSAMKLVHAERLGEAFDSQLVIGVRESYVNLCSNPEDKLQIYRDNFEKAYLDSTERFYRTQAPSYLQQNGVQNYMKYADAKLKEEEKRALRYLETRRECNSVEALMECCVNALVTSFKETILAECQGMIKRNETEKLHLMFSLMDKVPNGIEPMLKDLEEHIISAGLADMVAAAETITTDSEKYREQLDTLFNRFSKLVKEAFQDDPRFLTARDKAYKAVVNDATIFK

For the substance “BCvif95-192: EloB (1-118) / EloC (17-112) / Vif (95-192) (from UniProt P69723 95-192)”, in assay [1], the ΔH was -5.24 kcal/mol. In assay [2], this substance showed an N of 1.01 and a ΔS of 11.1.

In assay [1], “BCvifSS: EloB (1-118) / EloC (17-112) / vif (95-192) (A123S, L124S) (from UniProt P69723 95-192)” displayed a ΔH of -7.28 kcal/mol. For the same substance, in assay [3], the n (ITC binding stoichiometry) came to 1.01.

In assay [3], “BCvifVF: EloB (1-118) / EloC (17-112) / vif (95-192) (A123V, L124F) (from UniProt P69723 95-192)” yielded a n (ITC binding stoichiometry) of 0.43. Moreover, the n (ITC binding stoichiometry, one set of sites model) in assay [4] is 0.901; in assay [5] it was 0.451.
